Reference: the supplement of paper PMC10126150
± gives the standard deviation of the averaged measurements.

Tested on: ATP
Test: switch fluorescence ratio, 500 uM ATP over buffer (Cy3 cluster intensity, sum of 5 cycles each) (fold (ratio)); higher = stronger signal-on switching upon ATP binding; sequences stand for … in TCGTCGGCAGCGTCAGATGTGTATAAGAGACAGTTTTTTTTTTTTTTTTTTTTTTTTT…TC
Conditions: aptamer strand: ATP DNA aptamer (quencher-CACCTGGGGGAGTATTGCGGAGGAAGG + anchor), 100 nM annealed; ATP concentration: 500 uM
In short: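 After annealing to 100 nM quencher-labelled ATP aptamer, Cy3-labelled switching-strand clusters on a modified Illumina MiSeq flow-cell were imaged in selection buffer. A second image followed after 15 min with 500 uM ATP at 22 °C, and five such buffer/ATP cycles were done, each separated by NaOH stripping and re-annealing. The fluorescence ratio, averaged per switch-domain sequence, is summed target-cycle over summed buffer-cycle Cy3 intensity per cluster, with clusters outside 100-1000 RFU excluded.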
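Note: ATP exposure 15 min at 22 °C before imaging.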

For TCATATTATC, the switch fluorescence ratio was 1 ± 0.029.
TCATATTGGA showed a switch fluorescence ratio of 0.979 ± 0.015.
In the case of TCATATTTGT, the switch fluorescence ratio is reported as 0.981 ± 0.019.
Work on TCATATTTTT yielded a switch fluorescence ratio of 1.006 ± 0.0064.
For TCATCAAGGG, the switch fluorescence ratio was 0.965 ± 0.012.
With TCATCGCATG the switch fluorescence ratio was 1.3 ± 0.016.
For TCATCGGCTC, the switch fluorescence ratio was 1.32 ± 0.11.
TCATCGGGGC showed a switch fluorescence ratio of 1.03 ± 0.071.
TCATCGGGTC showed a switch fluorescence ratio of 1.05 ± 0.017.
TCATCGGTTC gave a switch fluorescence ratio of 1 ± 0.052.
With TCATCGGTTT the switch fluorescence ratio was 0.977 ± 0.017.
TCATCTACTT showed a switch fluorescence ratio of 1.02 ± 0.041.
In the case of TCATCTTAAT, the switch fluorescence ratio is reported as 0.992 ± 0.044.
TCATGACAGC gave a switch fluorescence ratio of 1 ± 0.034.
In the case of TCATGAGAGT, the switch fluorescence ratio is reported as 0.998 ± 0.011.
TCATGAGGGA showed a switch fluorescence ratio of 1.02 ± 0.022.
For TCATGCTTGT, the switch fluorescence ratio was 0.985 ± 0.035.
In the case of TCATGGAGGC, the switch fluorescence ratio is reported as 1.02 ± 0.041.
TCATGGATTT showed a switch fluorescence ratio of 1.01 ± 0.026.
TCATGGCACC gave a switch fluorescence ratio of 1.05 ± 0.025.
With TCATGGCGCA the switch fluorescence ratio was 1.07 ± 0.013.
TCATGGGAAG was tested, and the switch fluorescence ratio was 1.02 ± 0.077.
TCATGGGGGT was tested, and the switch fluorescence ratio was 0.995 ± 0.028.
With TCATGGGGTC the switch fluorescence ratio was 0.975 ± 0.022.
For TCATGGGTTT, the switch fluorescence ratio was 0.997 ± 0.04.
TCATGTGCAT showed a switch fluorescence ratio of 1.129 ± 0.0048.
For TCATGTTTTG, the switch fluorescence ratio was 0.9969 ± 0.0032.
Sequence TCATTAAGAT has a switch fluorescence ratio of 0.994 ± 0.053.
With TCATTAATAG the switch fluorescence ratio was 0.996 ± 0.012.
For TCATTAGGAA, the switch fluorescence ratio was 1 ± 0.035.
For TCATTCCTTT, the switch fluorescence ratio was 1.008 ± 0.0063.
TCATTCGGTT gave a switch fluorescence ratio of 1.02 ± 0.016.
For TCATTCTAGG, the switch fluorescence ratio was 1.009 ± 0.0031.
With TCATTGGGAC the switch fluorescence ratio was 1.06 ± 0.028.
For TCATTGGTAA, the switch fluorescence ratio was 0.977 ± 0.047.
Work on TCATTGTGCT yielded a switch fluorescence ratio of 0.975 ± 0.015.
TCATTTAGAG gave a switch fluorescence ratio of 0.977 ± 0.019.
TCATTTAGGT showed a switch fluorescence ratio of 0.967 ± 0.013.
In the case of TCATTTATGT, the switch fluorescence ratio is reported as 0.9665 ± 0.0014.
With TCATTTGGGA the switch fluorescence ratio was 1.008 ± 0.0033.
TCCAACTGCT was tested, and the switch fluorescence ratio was 1.037 ± 0.0035.
For TCCAAGGGCA, the switch fluorescence ratio was 1.01 ± 0.015.
Sequence TCCACACGCT has a switch fluorescence ratio of 2.14 ± 0.25.
TCCACATATC was tested, and the switch fluorescence ratio was 1.5 ± 0.0073.
With TCCACGATTA the switch fluorescence ratio was 1.108 ± 0.011.
With TCCACTTATT the switch fluorescence ratio was 1.05 ± 0.093.
TCCAGCGCAC was tested, and the switch fluorescence ratio was 3.81 ± 1.1.
Sequence TCCAGCGCGG has a switch fluorescence ratio of 1.14 ± 0.015.
TCCAGGACGA was tested, and the switch fluorescence ratio was 1.05 ± 0.023.
TCCAGGACTA gave a switch fluorescence ratio of 1.02 ± 0.015.
With TCCAGGGGAT the switch fluorescence ratio was 1.07 ± 0.12.
In the case of TCCAGGGTTT, the switch fluorescence ratio is reported as 1.06 ± 0.04.
Work on TCCAGGTTGG yielded a switch fluorescence ratio of 1.15 ± 0.048.
Work on TCCAGTATGG yielded a switch fluorescence ratio of 1.012 ± 0.008.
In the case of TCCAGTTAGG, the switch fluorescence ratio is reported as 0.998 ± 0.051.
Work on TCCATATGGT yielded a switch fluorescence ratio of 0.975 ± 0.023.
TCCATCAGTA gave a switch fluorescence ratio of 0.985 ± 0.024.
TCCATGGGAT gave a switch fluorescence ratio of 1.007 ± 0.0014.
TCCATGTAA was tested, and the switch fluorescence ratio was 1.01 ± 0.045.
Sequence TCCCACTTCG has a switch fluorescence ratio of 1.03 ± 0.053.
For TCCCAGTGCT, the switch fluorescence ratio was 1.84 ± 0.21.
TCCCATATAT gave a switch fluorescence ratio of 1.09 ± 0.014.
TCCCATGTTG gave a switch fluorescence ratio of 1.05 ± 0.054.
In the case of TCCCCCGCCG, the switch fluorescence ratio is reported as 1.09 ± 0.12.
TCCCCCTGGT was tested, and the switch fluorescence ratio was 1.37 ± 0.069.
TCCCCTGGTT gave a switch fluorescence ratio of 1.64 ± 0.14.
In the case of TCCCCTGTGT, the switch fluorescence ratio is reported as 1.86 ± 0.54.
Sequence TCCCGGGAAT has a switch fluorescence ratio of 0.987 ± 0.031.
In the case of TCCCGGTAGT, the switch fluorescence ratio is reported as 1.01 ± 0.019.
For TCCCTAACAC, the switch fluorescence ratio was 1.12 ± 0.023.
TCCCTACTGT showed a switch fluorescence ratio of 1.02 ± 0.017.
In the case of TCCCTGGGGG, the switch fluorescence ratio is reported as 1.08 ± 0.11.
Work on TCCCTTGGTT yielded a switch fluorescence ratio of 1.05 ± 0.054.
TCCGACTGAT was tested, and the switch fluorescence ratio was 1.72 ± 0.05.
For TCCGAGATCT, the switch fluorescence ratio was 1.08 ± 0.053.
In the case of TCCGAGGTTT, the switch fluorescence ratio is reported as 1.28 ± 0.044.
TCCGATGAGG showed a switch fluorescence ratio of 1.05 ± 0.074.
TCCGATGCGT was tested, and the switch fluorescence ratio was 2.97 ± 2.8.
With TCCGATGGGG the switch fluorescence ratio was 1.084 ± 0.0093.
In the case of TCCGATGTTT, the switch fluorescence ratio is reported as 1.76 ± 0.27.
With TCCGATTACG the switch fluorescence ratio was 1.22 ± 0.037.
Work on TCCGATTTGT yielded a switch fluorescence ratio of 1.02 ± 0.08.
In the case of TCCGCACAGA, the switch fluorescence ratio is reported as 3.41 ± 0.89.
With TCCGGAGGCA the switch fluorescence ratio was 2.2 ± 0.059.
TCCGGCTGGT was tested, and the switch fluorescence ratio was 0.976 ± 0.024.
TCCGGGGGGC gave a switch fluorescence ratio of 1.15 ± 0.18.
Work on TCCGGGGTGC yielded a switch fluorescence ratio of 2.36 ± 1.
Sequence TCCGGGTCTG has a switch fluorescence ratio of 1.03 ± 0.072.
Work on TCCGGTACTG yielded a switch fluorescence ratio of 1.16 ± 0.074.
For TCCGTCTGTT, the switch fluorescence ratio was 1.003 ± 0.0052.
With TCCGTGCAAG the switch fluorescence ratio was 3.03 ± 0.48.
In the case of TCCGTGCGGT, the switch fluorescence ratio is reported as 1.04 ± 0.066.
For TCCGTGGGTG, the switch fluorescence ratio was 1.38 ± 0.21.
For TCCTAGCACT, the switch fluorescence ratio was 1.65 ± 0.12.
In the case of TCCTAGGCGC, the switch fluorescence ratio is reported as 1.126 ± 0.0049.
TCCTAGTCAT showed a switch fluorescence ratio of 1.05 ± 0.036.
TCCTATGGGG was tested, and the switch fluorescence ratio was 0.9886 ± 0.0033.
With TCCTCACTGT the switch fluorescence ratio was 1.18 ± 0.034.
For TCCTCGGGGG, the switch fluorescence ratio was 0.989 ± 0.027.
For TCCTGAGTAA, the switch fluorescence ratio was 1.55 ± 0.25.
Sequence TCCTGATTGC has a switch fluorescence ratio of 1.03 ± 0.038.
In the case of TCCTGGGGAT, the switch fluorescence ratio is reported as 0.99 ± 0.039.
Work on TCCTGTATGT yielded a switch fluorescence ratio of 0.9981 ± 0.0018.
Sequence TCCTGTTCTG has a switch fluorescence ratio of 1.02 ± 0.041.
For TCCTTTAACG, the switch fluorescence ratio was 1.031 ± 0.0014.
In the case of TCCTTTAAGA, the switch fluorescence ratio is reported as 0.998 ± 0.036.
TCCTTTTTTG was tested, and the switch fluorescence ratio was 1 ± 0.016.
In the case of TCGAAAAGGA, the switch fluorescence ratio is reported as 1.02 ± 0.026.
For TCGAAAATGT, the switch fluorescence ratio was 1.01 ± 0.081.
TCGAAAGGCA showed a switch fluorescence ratio of 1.04 ± 0.031.
With TCGAAATTTT the switch fluorescence ratio was 1 ± 0.022.
TCGAACCGAG gave a switch fluorescence ratio of 1.2 ± 0.024.
TCGAACGTTG was tested, and the switch fluorescence ratio was 1.034 ± 0.0026.
TCGAACTAGG showed a switch fluorescence ratio of 1 ± 0.018.
With TCGAACTGCT the switch fluorescence ratio was 1.02 ± 0.02.
In the case of TCGAAGGGT, the switch fluorescence ratio is reported as 1 ± 0.037.
With TCGAAGGTTT the switch fluorescence ratio was 1.01 ± 0.029.
In the case of TCGAATTTTT, the switch fluorescence ratio is reported as 1.02 ± 0.07.
TCGACCCAGC was tested, and the switch fluorescence ratio was 1.104 ± 0.0032.
With TCGACTATTA the switch fluorescence ratio was 1.05 ± 0.019.
Work on TCGAGACTAG yielded a switch fluorescence ratio of 1.02 ± 0.029.
TCGAGCGAAC gave a switch fluorescence ratio of 2.1 ± 0.53.
TCGAGCTAAT gave a switch fluorescence ratio of 1.41 ± 0.11.
Sequence TCGAGGGGAC has a switch fluorescence ratio of 1.67 ± 1.4.
In the case of TCGAGGGGAG, the switch fluorescence ratio is reported as 0.978 ± 0.016.
TCGAGGGGAT gave a switch fluorescence ratio of 1.01 ± 0.027.
For TCGAGGGGCG, the switch fluorescence ratio was 1.06 ± 0.019.
Sequence TCGAGGGGGG has a switch fluorescence ratio of 1.05 ± 0.096.
TCGAGGGGTA showed a switch fluorescence ratio of 1 ± 0.07.
With TCGAGTAAAA the switch fluorescence ratio was 0.9902 ± 0.0039.
TCGAGTATGT showed a switch fluorescence ratio of 0.983 ± 0.012.
TCGAGTGCGT showed a switch fluorescence ratio of 0.978 ± 0.014.
For TCGATAGCGA, the switch fluorescence ratio was 1.19 ± 0.028.
With TCGATCATAA the switch fluorescence ratio was 0.9901 ± 0.0015.
TCGATGCAAG gave a switch fluorescence ratio of 1.23 ± 0.015.
For TCGATGCAGC, the switch fluorescence ratio was 1.45 ± 0.31.
In the case of TCGATGGGGA, the switch fluorescence ratio is reported as 1.02 ± 0.015.
TCGATTCAGC showed a switch fluorescence ratio of 0.979 ± 0.025.
For TCGCAGGATA, the switch fluorescence ratio was 1.08 ± 0.012.
TCGCAGGCCT gave a switch fluorescence ratio of 1.033 ± 0.003.
TCGCAGTGGG gave a switch fluorescence ratio of 1.12 ± 0.034.
Sequence TCGCCGCTAT has a switch fluorescence ratio of 2.61 ± 0.34.
In the case of TCGCCTGGGG, the switch fluorescence ratio is reported as 1.1 ± 0.0046.
With TCGCGAGTAA the switch fluorescence ratio was 1.04 ± 0.076.
For TCGCGCGGAG, the switch fluorescence ratio was 1.04 ± 0.024.
Work on TCGCGGAGGG yielded a switch fluorescence ratio of 0.981 ± 0.019.
TCGCGGAGTT was tested, and the switch fluorescence ratio was 1 ± 0.011.
In the case of TCGCGGCGCG, the switch fluorescence ratio is reported as 0.972 ± 0.011.
TCGCTCATGG showed a switch fluorescence ratio of 1.03 ± 0.015.
In the case of TCGCTGAGG, the switch fluorescence ratio is reported as 0.9921 ± 0.00077.
TCGGAAATTT was tested, and the switch fluorescence ratio was 1.002 ± 0.0079.
For TCGGAACTTG, the switch fluorescence ratio was 1.01 ± 0.07.
In the case of TCGGAAGGGG, the switch fluorescence ratio is reported as 1.17 ± 0.3.
